Experimental data: publication PMC9147068, “The Response Regulator RegA Is a Copper Binding Protein That Covalently Dimerizes When Exposed to Oxygen” (Microorganisms, 2022)

What was measured:
[1] = tested on: RegA, Cu2+-stimulated disulfide-linked dimer (unphosphorylated) (Rhodobacter capsulatus); assay: DNase I footprinting; settings: 20 mM Tris-HCl pH 8.0, 2 mM MgCl2, 0.5 mM CaCl2, 0.1 mg/mL BSA, 50 nM DNA probe, 20 uL, 15 min at room temperature
[2] = target: the molecule itself; assay: non-reducing SDS-PAGE; monomeric RegA loaded with Cu2+ by buffer exchange aerobically (20 mM Tris-HCl pH 8.0, 250 mM NaCl), run at once on a non-reducing gel without DTT; time course in air from one minute

ccoN promoter fragment (299 bp)
Kd [1]: 1000 nM

B1: RegA (response regulator RegA of Rhodobacter capsulatus), wild type, tagless (natural protein, UniProt P42508 1-184, looked up)
chain: MAEEEFAELGSDRSLLLVDDDNAFLTRLARAMEKRGFQTEIAETVSAGKAIVQNRAPAYAVIDLRLEDGNGLEVVEALRERRPEARIVVLTGYGAIATAVAAVKMGATDYLSKPADANDITNALLAKGEALPPPPENPMSADRVRWEHIQRVYELCDRNVSETARRLNMHRRTLQRILAKRSPR
notes: RegA, response regulator of the RegB/RegA two-component system, Rhodobacter capsulatus; wild-type codon at residue 95 (made from the RegA* overexpression vector of Du et al. 1998); a single cysteine, Cys156, in the tryptic peptide VYELCDR; The dimer formed with Cu2+ and O2 is joined by an intermolecular disulfide bond between Cys156 of two chains; also called apo-RegA; RegA monomer
stoichiometry N [2]: 2
